The data set relates to Bacillus subtilis DB104 (SP-AmyQ fusion secretion). Put plainly: AmyQ secretion efficiency, weighted average sort bin (1 = best secretion, 10 = worst) (bin number (weighted average, 1-10)); higher = lower secretion efficiency. The essentials:
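Occupied alginate beads were sorted by large-particle flow cytometry into 10 equally populated bins according to green/red fluorescence ratio. Each bead (~65 nL) held fluorescein-starch and about 0.3 cells of a B. subtilis DB104 library expressing mature AmyQ fused to designed signal peptides from the amyE locus, and beads were grown about 13 h at room temperature and stained with nile red before sorting. Bin amplicons were Illumina-sequenced, and the secretion score is the read-frequency-weighted average bin number, normalised to beads per bin, excluding low-abundance sequences.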

In turn, MKKVLMAFIICLSLILSVLAAPPSGKKAESV gave an AmyQ secretion efficiency of 8.34.

Sequence MKKTIMSQKQTAALSTTAFGAHASAKEI displayed an AmyQ secretion efficiency of 7.42.

MFKKLKRRKSALTFSLSLVLPLDGHAKAQEV had an AmyQ secretion efficiency of 6.09.

With MKLSVKIAGVLTVAAAAMTAKMYATIKGN, the AmyQ secretion efficiency was 6.84.

In turn, MFKKHTISLLIIFLLASAVLAKPSEAHTV had an AmyQ secretion efficiency of 2.57.

Consider MPYLKRVRRRRRRGLFMSLFAVTATASAQTG, for which the AmyQ secretion efficiency was found to be 6.28.

On to MSKWMITIAMLILAGIALFVFISPLKSHKT, for which the AmyQ secretion efficiency was 5.71.

As to MIVIILLFISIIVFLSVIQPQPD, the AmyQ secretion efficiency worked out at 4.48.

In the case of MRMLWRMLALCLLALLLAPCAQAAEP, the AmyQ secretion efficiency turned out to be 1.73.

For the sequence MMSTIFAFLTGLMMFGTITAASASPD, the AmyQ secretion efficiency worked out at 4.92.

Regarding MKKLLAAGIIGLLTVSIASPSFPAEK, the AmyQ secretion efficiency worked out at 7.88.

In turn, MRMLWRSLALCGLALTLADDDCAQAAEP registered an AmyQ secretion efficiency of 2.72.

As for MNKRFFGPIILAFILFAGAIAIPS, the AmyQ secretion efficiency came out at 7.33.

In turn, MLKKIALTLCPAIVGSLLFFTAPASGHVS showed an AmyQ secretion efficiency of 2.72.

MGLKKRVSMFLVALTMCGGLFVTPAKAVKT returned an AmyQ secretion efficiency of 3.29.

Turning to MKKKRRRVLMAFIICLSLILSVLAAPPSGAKAESV, the AmyQ secretion efficiency came out at 2.

The sequence MRSYIKVLTMCFLGLILFVPTALVDNS yielded an AmyQ secretion efficiency of 5.38.

In turn, MMIKQCVICLSLLVFGTEDEEEEAHAEET registered an AmyQ secretion efficiency of 6.81.

For MKWMCSICCAAVLLAGAAAAQAEAV, the AmyQ secretion efficiency is 4.13.

Sequence MKKKQVMLALTAAAGLGLTALHSAPAQKAAPL registered an AmyQ secretion efficiency of 5.43.

MKLKSKYYKGCRSTSTVFVATTIANAPTH came in with an AmyQ secretion efficiency of 7.35.

MRSYIKVLTMCFLGLILFVPTALFDNS had an AmyQ secretion efficiency of 7.14.

The sequence MRSYIKVLTMCFLGLILFVPTTAPSPGFALADNS showed an AmyQ secretion efficiency of 4.85.

In turn, MKKAAAVLLSLGLVFGFSYGAGHVNEAKTK displayed an AmyQ secretion efficiency of 5.96.

MRKYTVIASILLSFLSVLFGFHHESKAFPV had an AmyQ secretion efficiency of 3.04.

MLKKKWVGLLAGCLAAGGFSYNAFATEN had an AmyQ secretion efficiency of 4.85.

In the case of MQKKWRRRLIQFAVMLSVLSTFTYSASAVGV, the AmyQ secretion efficiency was 3.56.

MTGGSAVLLSLIMLIAGFLISFSFQM returned an AmyQ secretion efficiency of 7.63.

MMRIRIPMTLALGAALTIAPLSFASAEEN registered an AmyQ secretion efficiency of 2.92.

As to MTIFLMAVFVIMISFLIATVNVNTAHAAID, the AmyQ secretion efficiency is 6.34.

As for MKSKGSIMACLILFSFTITTFINTETISAFSR, the AmyQ secretion efficiency is 3.97.

The sequence MRSYIKVLTMCFLGLILFVPTMLADNS showed an AmyQ secretion efficiency of 3.1.

MKKAAAVLLSLGLVFGFSYGAGHVAELKTK gave an AmyQ secretion efficiency of 6.97.

Regarding MKSKWMRQKRLVAVGFSFTQVMVHAGET, the AmyQ secretion efficiency is 8.54.

For the sequence MKKVLMAFIICLSLILSVLAAPPSGHKAESV, the AmyQ secretion efficiency came out at 7.55.

The sequence MKKRFFGPIILAFILFLFSSLAGAIAIPS had an AmyQ secretion efficiency of 6.16.

As for MAIIIAIIAAVIVIAALITFNVRNASKR, the AmyQ secretion efficiency was 7.12.

Sequence MAIIIAIIAAVIVIAALITFEEDERNASPG registered an AmyQ secretion efficiency of 5.02.

Regarding MGLGKKLSVAVAASFMSLSISLPGVQFAEG, the AmyQ secretion efficiency was 4.64.

For MMGVLLSALLLLLFAFEPSASGKKL, the AmyQ secretion efficiency stood at 6.16.

Sequence MKRIRIPMTLALGAALTIAPLSFASFEEN had an AmyQ secretion efficiency of 6.34.

In turn, MKRIRIPMTLKKGAALTIAPLSFASAEEN came in with an AmyQ secretion efficiency of 7.82.

As for MLLGKILLSSALSLGMLVSAAPVLATSS, the AmyQ secretion efficiency worked out at 6.9.

On to MKLSVKIAGVLTVAAAAMTAKMYLTAKGN, for which the AmyQ secretion efficiency is 7.31.

MKKCLLFLTTIALILRKRRKKAFAKNT showed an AmyQ secretion efficiency of 7.29.

Take MKLAKRVSALTPSTTLAITAKAAPK: the AmyQ secretion efficiency is 7.94.

Values taken from the supplement of paper PMC9942255.
